Experimental findings from article PMC3477848 (Biochemistry, 2012) are described below.

Read-outs that look alike come from different tables or passages of the source.

The stoichiometry N is a count of units in the complex or per binding partner.

For data set [1], the target named is T1, Dpo4 (SsoDpo4, Y-family DNA polymerase) (Sulfolobus solfataricus, UniProt Q97W02 1-352).
T1 sequence: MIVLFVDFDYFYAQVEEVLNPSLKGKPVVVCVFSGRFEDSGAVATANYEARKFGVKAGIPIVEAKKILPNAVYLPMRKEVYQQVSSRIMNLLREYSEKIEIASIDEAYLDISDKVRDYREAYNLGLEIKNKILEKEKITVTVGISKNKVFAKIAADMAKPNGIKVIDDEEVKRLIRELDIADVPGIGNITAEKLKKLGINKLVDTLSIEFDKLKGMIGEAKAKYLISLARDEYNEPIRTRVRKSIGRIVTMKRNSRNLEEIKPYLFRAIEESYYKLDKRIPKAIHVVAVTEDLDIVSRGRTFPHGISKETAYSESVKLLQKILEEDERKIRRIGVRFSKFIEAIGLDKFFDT
In words: ITC. On the technique in general: ITC needs no label: the signal is the heat of the interaction.

The target of data set [2] is T1, Dpo4 (SsoDpo4, Y-family DNA polymerase). The experiment in a line: ITC. This is another data set of the same source.
The data set “cross-linking” concerns the molecule itself. The experiment in a line: cross-linking.

Turning to TTTTTTTTTTCCCGGGCCGGCGTTTCGCCGGCCCGGG (structured_DNA) [37-nt hairpin primer-template, unlabeled], the Ka in data set [1] was 652000 M⁻¹; in data set [2] it was 2.23e+06 M⁻¹.

B1: Dpo4, wild-type untagged, Y-family lesion bypass (repair) DNA polymerase of Sulfolobus solfataricus (enzyme)
chain: MIVLFVDFDYFYAQVEEVLNPSLKGKPVVVCVFSGRFEDSGAVATANYEARKFGVKAGIPIVEAKKILPNAVYLPMRKEVYQQVSSRIMNLLREYSEKIEIASIDEAYLDISDKVRDYREAYNLGLEIKNKILEKEKITVTVGISKNKVFAKIAADMAKPNGIKVIDDEEVKRLIRELDIADVPGIGNITAEKLKKLGINKLVDTLSIEFDKLKGMIGEAKAKYLISLARDEYNEPIRTRVRKSIGRIVTMKRNSRNLEEIKPYLFRAIEESYYKLDKRIPKAIHVVAVTEDLDIVSRGRTFPHGISKETAYSESVKLLQKILEEDERKIRRIGVRFSKFIEAIGLDKFFDT
As for B1, the “stoichiometry N” value in “cross-linking” amounted to 2.
